Data published in patent US20140274782A1, “AFFINITY REAGENTS AND METHODS FOR DETECTION, PURIFICATION, AND PROTEOMIC ANALYSIS OF METHYLATED PROTEINS” (The Board of Trustees of the Leland Stanford Junior …, priority 2013, published 2014).

T1: G9a and GLP (Homo sapiens, UniProt Q96KQ7+Q9H9B1)
T1 sequence (Q96KQ7 2-1210 limits assumed): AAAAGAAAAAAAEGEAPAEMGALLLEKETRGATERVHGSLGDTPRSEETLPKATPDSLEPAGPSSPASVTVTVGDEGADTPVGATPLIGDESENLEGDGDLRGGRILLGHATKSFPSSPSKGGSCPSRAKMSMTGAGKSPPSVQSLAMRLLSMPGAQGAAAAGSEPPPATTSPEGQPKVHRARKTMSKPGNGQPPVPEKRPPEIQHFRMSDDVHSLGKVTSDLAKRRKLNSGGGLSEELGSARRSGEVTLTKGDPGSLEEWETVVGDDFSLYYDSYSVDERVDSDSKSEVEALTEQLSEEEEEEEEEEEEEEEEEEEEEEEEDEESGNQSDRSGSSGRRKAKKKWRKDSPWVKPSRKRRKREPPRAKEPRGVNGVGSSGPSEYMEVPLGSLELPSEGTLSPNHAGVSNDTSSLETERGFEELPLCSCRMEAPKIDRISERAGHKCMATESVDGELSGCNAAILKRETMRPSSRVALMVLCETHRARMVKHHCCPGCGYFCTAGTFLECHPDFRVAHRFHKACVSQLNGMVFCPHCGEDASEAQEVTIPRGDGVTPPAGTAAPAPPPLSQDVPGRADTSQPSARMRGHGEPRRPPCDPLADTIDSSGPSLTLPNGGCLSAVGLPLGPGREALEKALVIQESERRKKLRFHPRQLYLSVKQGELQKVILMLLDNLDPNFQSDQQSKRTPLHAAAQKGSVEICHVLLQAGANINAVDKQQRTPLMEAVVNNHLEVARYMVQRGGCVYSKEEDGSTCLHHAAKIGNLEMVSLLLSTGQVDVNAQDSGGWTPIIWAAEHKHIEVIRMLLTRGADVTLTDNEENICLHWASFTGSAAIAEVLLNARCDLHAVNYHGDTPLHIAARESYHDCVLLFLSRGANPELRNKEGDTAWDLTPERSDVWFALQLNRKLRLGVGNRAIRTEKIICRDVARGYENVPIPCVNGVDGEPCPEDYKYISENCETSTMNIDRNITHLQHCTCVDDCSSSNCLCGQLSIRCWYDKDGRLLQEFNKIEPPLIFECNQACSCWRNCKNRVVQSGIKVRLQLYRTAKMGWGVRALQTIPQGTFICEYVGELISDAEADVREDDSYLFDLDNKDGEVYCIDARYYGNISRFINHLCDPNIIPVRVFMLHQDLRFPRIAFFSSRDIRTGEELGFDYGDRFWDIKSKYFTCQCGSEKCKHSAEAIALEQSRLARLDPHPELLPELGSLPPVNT
T1 sequence (Q9H9B1 2-1298 limits assumed): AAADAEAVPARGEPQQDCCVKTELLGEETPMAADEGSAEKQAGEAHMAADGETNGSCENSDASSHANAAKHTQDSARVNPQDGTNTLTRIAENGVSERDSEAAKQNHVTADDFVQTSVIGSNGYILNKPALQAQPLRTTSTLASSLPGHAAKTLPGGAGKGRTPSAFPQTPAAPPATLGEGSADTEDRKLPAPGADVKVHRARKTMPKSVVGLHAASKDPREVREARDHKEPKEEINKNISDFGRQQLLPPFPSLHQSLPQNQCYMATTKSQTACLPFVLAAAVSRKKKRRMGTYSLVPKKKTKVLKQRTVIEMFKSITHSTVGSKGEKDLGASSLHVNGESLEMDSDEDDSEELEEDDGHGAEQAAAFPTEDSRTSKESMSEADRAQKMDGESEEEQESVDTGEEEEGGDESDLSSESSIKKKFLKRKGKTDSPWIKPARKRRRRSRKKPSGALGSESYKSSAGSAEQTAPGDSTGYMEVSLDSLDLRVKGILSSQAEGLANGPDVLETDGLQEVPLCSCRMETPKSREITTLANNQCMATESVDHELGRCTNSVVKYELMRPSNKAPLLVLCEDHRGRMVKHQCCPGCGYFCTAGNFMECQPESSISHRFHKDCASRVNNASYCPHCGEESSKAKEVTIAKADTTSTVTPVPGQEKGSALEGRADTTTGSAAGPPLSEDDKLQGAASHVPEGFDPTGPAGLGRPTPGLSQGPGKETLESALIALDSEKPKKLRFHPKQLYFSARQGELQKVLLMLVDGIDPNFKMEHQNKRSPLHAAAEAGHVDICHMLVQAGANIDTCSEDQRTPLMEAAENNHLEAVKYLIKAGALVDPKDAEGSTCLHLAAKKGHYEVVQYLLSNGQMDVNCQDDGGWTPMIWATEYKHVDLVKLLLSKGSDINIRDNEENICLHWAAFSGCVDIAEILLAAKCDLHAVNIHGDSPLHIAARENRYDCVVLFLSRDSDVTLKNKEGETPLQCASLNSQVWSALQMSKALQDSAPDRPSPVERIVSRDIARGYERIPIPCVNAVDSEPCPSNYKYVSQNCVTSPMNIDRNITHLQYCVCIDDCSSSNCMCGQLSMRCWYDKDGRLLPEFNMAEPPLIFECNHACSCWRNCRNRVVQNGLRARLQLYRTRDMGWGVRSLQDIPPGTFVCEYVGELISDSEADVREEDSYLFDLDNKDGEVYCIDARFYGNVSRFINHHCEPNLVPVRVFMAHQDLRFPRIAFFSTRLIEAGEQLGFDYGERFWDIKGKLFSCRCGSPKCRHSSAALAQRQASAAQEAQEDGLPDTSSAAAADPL


Assays:
3×MBT domain of L3MBTL1 = experiment: Triple SILAC pull-down, 3xMBT/3xMBTD355N ratio (cytoplasmic, nuclear and chromatin fractions of 293T cells); assay type: binding, human; details: SILAC ratio, pull-down 3xMBT vs 3xMBTD355N; for 3xMBT/D355N UNC Heavy: experiment with UNC0638 in heavy SILAC media; for 3xMBT/D355N UNC Light: experiment with UNC0638 in light SILAC media;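 on all read-outs here: proteins quantified with MaxQuant, requiring at least two unique peptides and quantification in both label directions, normalized to the mean of proteins from a digested loading control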
G9a and GLP = target: T1, G9a and GLP; experiment: Triple SILAC pull-down after UNC0638 treatment of 293T cells, DMSO/UNC0638 ratio of protein captured by 3×MBT; assay type: cell-based; set-up: endogenous in cells; host or cells: HEK 293T; details: for Relative to UNC0638 UNC Heavy / Relative to UNC0638 UNC Light: SILAC ratio DMSO/UNC0638 of protein pulled down with 3xMBT; for Relative to UNC0638 UNC Heavy: UNC0638 in heavy SILAC media; for Relative to UNC0638 UNC Light: UNC0638 in light SILAC media; for Relative to UNC0638 Average: average of UNC Light and UNC Heavy experiments;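 on all read-outs here: mass spectrometry (Q-Exactive) SILAC quantitation, DMSO/UNC0638 ratio computed after subtracting 3×MBTD355N mutant pull-down background, only proteins with at least twofold 3×MBT over mutant signal considered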

Row | Relative to UNC0638 UNC Heavy (G9a and GLP) | Relative to UNC0638 UNC Light (G9a and GLP) | Relative to UNC0638 Average (G9a and GLP) | Molecule | 3xMBT/D355N UNC Heavy (3×MBT domain of L3MBTL1) | 3xMBT/D355N UNC Light (3×MBT domain of L3MBTL1)
1 | 0.27 log base 2 | 0.10 log base 2 | 0.19 log base 2 | SRP72 (protein, UniProt O76094 2-671, looked up) Signal recognition particle …: ASGGSGGVSVPALWSEVNRYGQNGDFTRALKTVNKILQINKDDVTALHCKVVCLIQNGSFKEALNVINTHTKVLANNSLSFEKAYCEYRLNRIENALKTIESANQQTDKLKELYGQVLYRLERYDECLAVYRDLVRNSQDDYDEERKTNLSAVVAAQSNWEKVVPENLGLQEGTHELCYNTACALIGQGQLNQAMKILQKAEDLCRRSLSEDTDGTEEDPQAELAIIHGQMAYILQLQGRTEEALQLYNQIIKLKPTDVGLLAVIANNIITINKDQNVFDSKKKVKLTNAEGVEFKLSKKQLQAIEFNKALLAMYTNQAEQCRKISASLQSQSPEHLLPVLIQAAQLCREKQHTKAIELLQEFSDQHPENAAEIKLTMAQLKISQGNISKACLILRSIEELKHKPGMVSALVTMYSHEEDIDSAIEVFTQAIQWYQNHQPKSPAHLSLIREAANFKLKYGRKKEAISDLQQLWKQNPKDIHTLAQLISAYSLVDPEKAKALSKHLPSSDSMSLKVDVEALENSAGATYIRKKGGKVTGDSQPKEQGQGDLKKKKKKKKGKLPKNYDPKVTPDPERWLPMRERSYYRGRKKGKKKDQIGKGTQGATAGASSELDASKTVSSPPTSPRPGSAATVSASTSNIIPPRHQKPAGAPATKKKQQQKKKKGGKGGW | 1.68 log base 2 | 2.90 log base 2
2 | 0.01 log base 2 | 0.35 log base 2 | 0.18 log base 2 | DAZAP1 (protein, UniProt Q96EP5 1-407, looked up) DAZ-associated protein 1: MNNSGADEIGKLFVGGLDWSTTQETLRSYFSQYGEVVDCVIMKDKTTNQSRGFGFVKFKDPNCVGTVLASRPHTLDGRNIDPKPCTPRGMQPERTRPKEGWQKGPRSDNSKSNKIFVGGIPHNCGETELREYFKKFGVVTEVVMIYDAEKQRPRGFGFITFEDEQSVDQAVNMHFHDIMGKKVEVKRAEPRDSKSQAPGQPGASQWGSRVVPNAANGWAGQPPPTWQQGYGPQGMWVPAGQAIGGYGPPPAGRGAPPPPPPFTSYIVSTPPGGFPPPQGFPQGYGAPPQFSFGYGPPPPPPDQFAPPGVPPPPATPGAAPLAFPPPPSQAAPDMSKPPTAQPDFPYGQYAGYGQDLSGFGQGFSDPSQQPPSYGGPSVPGSGGPPAGGSGFGRGQNHNVQGFHPYRR | 2.92 log base 2 | 2.10 log base 2
3 | 0.30 log base 2 | 0.06 log base 2 | 0.18 log base 2 | CPSF3 (protein, UniProt Q9UKF6 2-684, looked up) Cleavage and polyadenylation …: SAIPAEESDQLLIRPLGAGQEVGRSCIILEFKGRKIMLDCGIHPGLEGMDALPYIDLIDPAEIDLLLISHFHLDHCGALPWFLQKTSFKGRTFMTHATKAIYRWLLSDYVKVSNISADDMLYTETDLEESMDKIETINFHEVKEVAGIKFWCYHAGHVLGAAMFMIEIAGVKLLYTGDFSRQEDRHLMAAEIPNIKPDILIIESTYGTHIHEKREEREARFCNTVHDIVNRGGRGLIPVFALGRAQELLLILDEYWQNHPELHDIPIYYASSLAKKCMAVYQTYVNAMNDKIRKQININNPFVFKHISNLKSMDHFDDIGPSVVMASPGMMQSGLSRELFESWCTDKRNGVIIAGYCVEGTLAKHIMSEPEEITTMSGQKLPLKMSVDYISFSAHTDYQQTSEFIRALKPPHVILVHGEQNEMARLKAALIREYEDNDEVHIEVHNPRNTEAVTLNFRGEKLAKVMGFLADKKPEQGQRVSGILVKRNFNYHILSPCDLSNYTDLAMSTVKQTQAIPYTGPFNLLCYQLQKLTGDVEELEIQEKPALKVFKNITVIQEPGMVVLEWLANPSNDMYADTVTTVILEVQSNPKIRKGAVQKVSKKLEMHVYSKRLEIMLQDIFGEDCVSVKDDSILSVTVDGKTANLNLETRTVECEEGSEDDESLREMVELAAQRLYEALTPVH | 3.39 log base 2 | 0.51 log base 2
4 | 0.12 log base 2 | 0.24 log base 2 | 0.18 log base 2 | HNRNPR (protein, UniProt O43390 2-633, looked up) Heterogeneous nuclear …: ANQVNGNAVQLKEEEEPMDTSSVTHTEHYKTLIEAGLPQKVAERLDEIFQTGLVAYVDLDERAIDALREFNEEGALSVLQQFKESDLSHVQNKSAFLCGVMKTYRQREKQGSKVQESTKGPDEAKIKALLERTGYTLDVTTGQRKYGGPPPDSVYSGVQPGIGTEVFVGKIPRDLYEDELVPLFEKAGPIWDLRLMMDPLSGQNRGYAFITFCGKEAAQEAVKLCDSYEIRPGKHLGVCISVANNRLFVGSIPKNKTKENILEEFSKVTEGLVDVILYHQPDDKKKNRGFCFLEYEDHKSAAQARRRLMSGKVKVWGNVVTVEWADPVEEPDPEVMAKVKVLFVRNLATTVTEEILEKSFSEFGKLERVKKLKDYAFVHFEDRGAAVKAMDEMNGKEIEGEEIEIVLAKPPDKKRKERQAARQASRSTAYEDYYYHPPPRMPPPIRGRGRGGGRGGYGYPPDYYGYEDYYDDYYGYDYHDYRGGYEDPYYGYDDGYAVRGRGGGRGGRGAPPPPRGRGAPPPRGRAGYSQRGAPLGPPRGSRGGRGGPAQQQRGRGSRGSRGNRGGNVGGKRKADGYNQPDSKRRQTNNQQNWGSQPIAQQPLQQGGDYSGNYGYNNDNQEFYQDTYGQQWK | 3.20 log base 2 | 3.60 log base 2
